Measured values published in patent US20210032298.
Where a chain is given by its changes, count along the chain named.

T1: Myc-tagged CMTM6 C90S mutant (expressed in HEK293 cells)
T1 chain: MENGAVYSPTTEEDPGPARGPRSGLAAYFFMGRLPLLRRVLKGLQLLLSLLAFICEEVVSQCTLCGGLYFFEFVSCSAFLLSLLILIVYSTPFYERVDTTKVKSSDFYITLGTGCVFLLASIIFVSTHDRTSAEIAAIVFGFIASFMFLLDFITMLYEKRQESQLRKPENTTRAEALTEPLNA

T2: Myc-tagged CMTM6 C90S+C115S double mutant (expressed in HEK293 cells)
T2 chain: T1 chain with C115S

T3: Myc-tagged CMTM6, wild type (expressed in HEK293 cells)
T3 chain: T1 chain with S90C

T4: Myc-tagged CMTM6 C115S mutant (expressed in HEK293 cells)
T4 chain: T1 chain with S90C, C115S

T5: transmembrane protein 192 (TMEM192), Q8IY95
T5 chain: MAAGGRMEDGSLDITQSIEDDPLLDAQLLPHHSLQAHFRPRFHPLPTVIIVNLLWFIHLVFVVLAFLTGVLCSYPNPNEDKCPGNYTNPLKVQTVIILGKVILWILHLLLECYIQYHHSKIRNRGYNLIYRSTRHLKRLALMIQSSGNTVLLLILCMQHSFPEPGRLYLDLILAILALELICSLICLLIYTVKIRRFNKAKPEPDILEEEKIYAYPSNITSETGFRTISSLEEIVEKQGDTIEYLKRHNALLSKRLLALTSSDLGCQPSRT

T6: Niemann-Pick C1 (NPC1; endogenous, in MDA-MB-231 cells), O15118
T6 chain: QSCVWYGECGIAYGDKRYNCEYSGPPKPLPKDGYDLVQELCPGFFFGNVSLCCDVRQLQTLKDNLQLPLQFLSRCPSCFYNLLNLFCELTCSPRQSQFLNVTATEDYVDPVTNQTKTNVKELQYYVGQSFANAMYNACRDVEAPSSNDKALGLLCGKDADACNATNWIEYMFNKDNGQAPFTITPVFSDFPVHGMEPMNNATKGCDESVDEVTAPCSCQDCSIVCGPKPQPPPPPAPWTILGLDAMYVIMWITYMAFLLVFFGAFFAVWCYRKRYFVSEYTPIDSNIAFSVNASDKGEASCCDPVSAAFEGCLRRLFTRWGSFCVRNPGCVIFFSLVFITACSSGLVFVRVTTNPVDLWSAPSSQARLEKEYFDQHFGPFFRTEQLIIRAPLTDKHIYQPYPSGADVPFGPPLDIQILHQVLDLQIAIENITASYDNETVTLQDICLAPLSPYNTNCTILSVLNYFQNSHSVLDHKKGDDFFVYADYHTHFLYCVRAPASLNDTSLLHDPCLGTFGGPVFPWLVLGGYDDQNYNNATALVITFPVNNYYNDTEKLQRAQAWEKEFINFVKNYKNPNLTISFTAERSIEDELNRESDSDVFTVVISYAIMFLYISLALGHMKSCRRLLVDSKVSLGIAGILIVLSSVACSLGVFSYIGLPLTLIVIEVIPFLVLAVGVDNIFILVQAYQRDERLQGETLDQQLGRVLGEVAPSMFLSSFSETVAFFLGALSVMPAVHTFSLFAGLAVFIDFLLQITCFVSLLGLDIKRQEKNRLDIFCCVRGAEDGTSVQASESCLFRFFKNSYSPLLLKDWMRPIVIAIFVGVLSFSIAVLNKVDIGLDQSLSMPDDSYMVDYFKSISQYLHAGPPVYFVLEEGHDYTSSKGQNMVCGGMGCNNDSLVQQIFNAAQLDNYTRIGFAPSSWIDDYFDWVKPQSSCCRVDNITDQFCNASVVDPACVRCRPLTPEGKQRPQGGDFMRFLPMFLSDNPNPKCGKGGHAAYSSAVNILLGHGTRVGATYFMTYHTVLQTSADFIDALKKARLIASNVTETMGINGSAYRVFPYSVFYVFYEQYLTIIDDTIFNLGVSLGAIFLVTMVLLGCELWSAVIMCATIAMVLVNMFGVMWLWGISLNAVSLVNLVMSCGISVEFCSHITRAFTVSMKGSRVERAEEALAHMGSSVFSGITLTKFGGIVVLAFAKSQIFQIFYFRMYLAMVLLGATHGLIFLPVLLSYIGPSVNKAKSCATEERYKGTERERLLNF

B1: FLAG-tagged DHHC3 (over-expressed in HEK293 cells) (protein)
chain: MMLIPTHHFRNIERKPEYLQPEKCVPPPYPGPVGTMWFIRDGCGIACAIVTWFLVLYAEFVVLFVMLIPSRDYVYSIINGIVFNLLAFLALASHCRAMLTDPGAVPKGNATKEFIESLQLKPGQVVYKCPKCCSIKPDRAHHCSVCKRCIRKMDHHCPWVNNCVGENNQKYFVLFTMYIALISLHALIMVGFHFLHCFEEDWTKCSSFSPPTTVILLILLCFEGLLFLIFTSVMFGTQVHSICTDETGIEQLKKEERRWAKKTKWMNMKAVFGHPFSLGWASPFATPDQGKADPYQYVV
B2: DHHC3 (protein acyltransferase; endogenous, in MDA-MB-231 cells) (protein)
chain: B1 chain

Columns and labels:
[1] = target: T1, Myc-tagged CMTM6 C90S mutant (expressed …)
[2] = target: T2, Myc-tagged CMTM6 C90S+C115S double …
[3] = target: T3, Myc-tagged CMTM6, wild type (expressed …)
[4] = target: T4, Myc-tagged CMTM6 C115S mutant …
[5] = target: T5, transmembrane protein 192 (TMEM192), …
[6] = target: T6, Niemann-Pick C1 (NPC1; endogenous, in …)

Row | Protein | incorporation of 3[H]-palmitate into immunoprecipitated Myc-CMTM6 (HEK293 over-expression) [1] | incorporation of 3[H]-palmitate into immunoprecipitated Myc-CMTM6 (HEK293 over-expression) [2] | incorporation of 3[H]-palmitate into immunoprecipitated Myc-CMTM6 (HEK293 over-expression) [3] | incorporation of 3[H]-palmitate into immunoprecipitated Myc-CMTM6 (HEK293 over-expression) [4] | palmitoylation of the substrate after DHHC3 ablation [5] | palmitoylation of the substrate after DHHC3 ablation [6]
1 | B1 | mutation of C90 (C→S) caused palmitoylation to be diminished by ˜50% | both mutations together (C90S+C115S) did not diminish palmitoylation (FIG. 23A, lane 6) more than C90S alone | CMTM6 incorporates 3[H]-palmitate when DHHC3 is present (FIG. 23A, lane 3), but not when DHHC3 is absent (FIG. 23A, lane 2) | a C115 mutation did not diminish incorporation of 3[H]-palmitate | – | –
2 | B2 | – | – | – | – | 4/4 putative DHHC3 substrates (ERGIC3, CMTM6, NPC1, transmembrane protein 192 (TMEM192)) lose substantial palmitoylation when DHHC3 is ablated | 4/4 putative DHHC3 substrates (ERGIC3, CMTM6, NPC1, transmembrane protein 192 (TMEM192)) lose substantial palmitoylation when DHHC3 is ablated
